The results in this text go back to PMC7386247.

The subject of one data set is PARP2 (Homo sapiens). Description: fluorescence polarization. As to conditions: not stated in the material (methods in supplement).
A further data set deals with PARP1 (Homo sapiens). Description: fluorescence polarization. To be noted: not stated in the material (methods in supplement).

Turning to 19mer, the Kd in the data set with PARP2 (Homo sapiens) stood at 0.055 µM. gas5: the results for the equilibrium dissociation constant (Kd) in the data set on PARP2 (Homo sapiens) and in the data set with PARP1 (Homo sapiens) were 0.04 µM and 0.35 µM, respectively. Taken in the same sequence, the figures for p18mer DNA were 0.059 µM and 0.013 µM. With tRNALeu, the Kd worked out at 0.037 µM in the data set with PARP2 (Homo sapiens) and 0.159 µM in the data set with PARP1 (Homo sapiens).
